B1: epitope-tagged SENP3 (enzyme)
chain: not shown
notes: SENP3, human; Blots used anti-HA, anti-GFP and anti-MYC antibodies; also called SUMO protease SENP3; source: HEK293FT, transiently transfected; in lysate (co-IP) and co-purified with C-terminal FLAG-tagged PELP1 (cross-linking)
B2: C-terminally HA-tagged WDR18 (full length) (natural protein, human, UniProt Q9BV38 1-432, looked up)
chain: MAAPMEVAVCTDSAAPMWSCIVWELHSGANLLTYRGGQAGPRGLALLNGEYLLAAQLGKNYISAWELQRKDQLQQKIMCPGPVTCLTASPNGLYVLAGVAESIHLWEVSTGNLLVILSRHYQDVSCLQFTGDSSHFISGGKDCLVLVWSLCSVLQADPSRIPAPRHVWSHHALPITDLHCGFGGPLARVATSSLDQTVKLWEVSSGELLLSVLFDVSIMAVTMDLAEHHMFCGGSEGSIFQVDLFTWPGQRERSFHPEQDAGKVFKGHRNQVTCLSVSTDGSVLLSGSHDETVRLWDVQSKQCIRTVALKGPVTNAAILLAPVSMLSSDFRPSLPLPHFNKHLLGAEHGDEPRHGGLTLRLGLHQQGSEPSYLDRTEQLQAVLCSTMEKSVLGGQDQLRVRVTELEDEVRNLRKINRDLFDFSTRFITRPAK
notes: WDR18, human, full length; The HA tag is stated for the cryo-EM sample; Two copies stand in the heterotetramer; source: HEK293FT, transiently transfected; in lysate (co-IP) and co-purified with FLAG-tagged PELP1 constructs on anti-FLAG gel (cryo-EM, cross-linking); not shown: HA, C-terminal, kept
B3: N-terminally FLAG-tagged PELP1 Rix1 domain (1-642aa) (domain or fragment)
chain: not shown
notes: PELP1, human, N-terminal Rix1 domain, residues 1-642; Two copies stand in the PELP1-WDR18 heterotetramer of the cryo-EM structure; also called Rix1 domain of PELP1; source: HEK293FT, transiently transfected; not shown: FLAG, N-terminal, kept

For data set [1], the target named is T1, C-terminal FLAG-tagged PELP1 (full length) (human, UniProt Q8IZL8 1-1130).
T1 construct: also called C-terminal PELP1 IP; source: HEK293FT, transiently transfected; in lysate (co-IP) and purified with the Rix1 complex via the C-terminal FLAG tag (cross-linking); not shown: FLAG, C-terminal, kept
In words: cross-linking; BS3 cross-linking with mass spectrometry of the Rix1 complex purified via the C-terminal FLAG tag on full-length PELP1; 2.0 uM complex, 50 mM Hepes pH 7.3, 600 mM NaCl, 5 mM MgCl2, 5% glycerol, room temperature 10 min; BS3 1.2 mM (methods) or 0.12 mM (results). The following applies: both partners purified.

The target of data set [2] is B1. The data set is described as above. Conditions: both partners purified.
Data set [3] has as its target B3. Nature of the data set: cross-linking; BS3 cross-linking with mass spectrometry of the PELP1 Rix1 domain-WDR18 sub-complex purified via the N-terminal FLAG tag; 6.0 uM complex, 1.0 mM BS3, 50 mM Hepes pH 7.3, 600 mM NaCl, 5 mM MgCl2, 5% glycerol, room temperature 10 min. Conditions: both partners purified.
Data set [4] concerns the molecule itself. Nature of the data set: cryo-EM structure; PELP1 Rix1 domain and WDR18 co-expressed in HEK293FT and co-purified on anti-FLAG gel; 150 mM NaCl, 50 mM Hepes pH 7.7, 5 mM MgCl2; 0.24 mg/ml; C2 symmetry, 2.7 Å.

Results on three molecules are retold here after article PMC9646879, “Cryo-EM reveals the architecture of the PELP1-WDR18 molecular scaffold” (Nature Communications, 2022).

T1 sequence (Q8IZL8 whole entry): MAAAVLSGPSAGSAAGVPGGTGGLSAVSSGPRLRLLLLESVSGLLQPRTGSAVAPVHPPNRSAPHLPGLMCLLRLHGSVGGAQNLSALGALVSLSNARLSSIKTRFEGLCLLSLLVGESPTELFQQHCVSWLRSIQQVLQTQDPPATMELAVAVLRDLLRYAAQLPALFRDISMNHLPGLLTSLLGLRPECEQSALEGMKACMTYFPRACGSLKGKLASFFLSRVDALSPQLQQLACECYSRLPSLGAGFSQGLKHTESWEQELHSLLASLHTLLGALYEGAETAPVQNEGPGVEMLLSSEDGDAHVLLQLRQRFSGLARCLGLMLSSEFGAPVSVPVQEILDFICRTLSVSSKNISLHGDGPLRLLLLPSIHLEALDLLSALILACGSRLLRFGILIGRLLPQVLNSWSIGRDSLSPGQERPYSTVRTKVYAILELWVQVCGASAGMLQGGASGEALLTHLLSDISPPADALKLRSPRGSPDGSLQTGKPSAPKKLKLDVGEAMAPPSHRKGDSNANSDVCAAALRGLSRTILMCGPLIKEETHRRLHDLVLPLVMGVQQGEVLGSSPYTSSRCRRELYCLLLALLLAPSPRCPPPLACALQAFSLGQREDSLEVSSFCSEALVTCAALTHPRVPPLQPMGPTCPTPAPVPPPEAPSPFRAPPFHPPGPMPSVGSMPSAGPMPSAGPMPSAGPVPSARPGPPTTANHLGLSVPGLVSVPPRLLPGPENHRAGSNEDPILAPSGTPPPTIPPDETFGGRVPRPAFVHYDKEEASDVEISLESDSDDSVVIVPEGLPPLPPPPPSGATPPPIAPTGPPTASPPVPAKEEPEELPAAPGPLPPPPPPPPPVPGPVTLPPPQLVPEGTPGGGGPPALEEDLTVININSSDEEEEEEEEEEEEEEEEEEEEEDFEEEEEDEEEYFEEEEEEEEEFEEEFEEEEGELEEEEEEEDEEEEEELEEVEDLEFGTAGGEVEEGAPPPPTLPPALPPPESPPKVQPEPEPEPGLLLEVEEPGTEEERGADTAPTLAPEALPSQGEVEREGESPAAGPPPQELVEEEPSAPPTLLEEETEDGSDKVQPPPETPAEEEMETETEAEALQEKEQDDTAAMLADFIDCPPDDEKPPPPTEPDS

Turning to B1, the binding result in data set [1] is reported as “binds”.

Take B2: the binding result in data set [2], in data set [1] and in data set [3] was “binds” in each case.

As a reminder, the stoichiometry N is a count of units in the complex or per binding partner. Take B3: the “stoichiometry N” value in data set [4] was 2.
